Columns and labels:
[1] = target: MBP tag only (UniProt P0AEX9 P0AEX9:27-396); experiment: EMSA; MBP tag control
[2] = target: p62 (SQSTM1, sequestosome 1) wild type (UniProt Q13501 Q13501:1-440); experiment: EMSA; apparent Kd, TBE pH 8.3 gel; competed by cold vtRNA1-1; settings: tags: MBP; (radioactive in EMSA); terminal stem loop, single-stranded loops in central domain

B1: vtRNA1-1 (ssRNA)
RNA: GGCUGGCUUUAGCUCAGCGGUUACUUCGACAGUUCUUUAAUUGAAACAAGCAACCUGUCUGGGUUGUUCGAGACCCGCGGGCGCUCUCCAGUCCUUUU
- binding result [1]: no binding
- Kd [2]: ~60 nM

From patent publication US20190201435, “MODULATORS OF VAULT RNAS FOR USE IN THE TREATMENT OF DISEASES” (European Molecular Biology Laboratory, published 2019)
